Values of other authors, collected in US20240247069A1, “FGFR3 BINDING MOLECULES AND METHODS OF USE THEREOF” (Regeneron Pharmaceuticals, Inc., priority 2023, published 2024).
Where a chain is given by its changes, count along the chain named. Names and notes keep the numbering of the source. Where two headings read alike, the source gives them in different places.

B1: 184.6.1.N54S: anti-FGFR3 Ig-like domain 3 antibody of WO 2010/111367 A1; VH SEQ ID NO:63, VL SEQ ID NO:64 (antibody, V domains shown)
VH: EVQLVESGGGLVQPGGSLRLSCAASGFTFTSTGISWVRQAPGKGLEWVGRIYPTSGSTNYADSVKGRFTISADTSKNTAYLQMNSLRAEDTAVYYCARARTYGIYDLYVDYTEYVMDYWGQGTLV
VL: DIQMTQSPSSLSASVGDRVTITCRASQDVDTSLAWYQQKPGKAPKLLIYSASFLYSGVPSRFSGSGSGTDFTLTISSLQPEDFATYYCQQSTGHPQTFGQGTKVEIKR
B2: MS-Pro-59: anti-FGFR3 Ig-like domain 3 antibody of WO 2002/102972 A2; VH SEQ ID NO:28, VL SEQ ID NO:29 (antibody, V domains shown)
VH: QVQLQQSGPGLVKPSQTLSLTCAISGDSVSSNSAAWNWIRQSPGRGLEWLGRTYYRSKWYNDYAVSVKSRITINDTSKNQFSLQLNSVTPEDTAVYYCARSYYPDFDYWGQGTVTVSS
VL: DIELTQPPSVSVAPGQTARISCSGDALGDKYASWYQQKPGQAPVLVIYDDSDRPSGIPERFSGSNSGNTATLTISGTQAEDEADYYCQSYDGPDLWVFGGGTKLTVLGQ
B3: 184.6.58: anti-FGFR3 Ig-like domain 3 antibody of WO 2010/111367 A1 (aka R3Mab); VH SEQ ID NO:65, VL SEQ ID NO:66; comparator REGN6331 (antibody, V domains shown)
VH: B1 VH with G49A, S55N
VL: B1 VL with T31I, S91G, T92A, H94N, Q96Y
notes: anti-FGFR3 Ig-like domain 3 antibody of WO 2010/111367 A1 (aka R3Mab); comparator REGN6331
B4: 184.6.62: anti-FGFR3 Ig-like domain 3 antibody of WO 2010/111367 A1; VH SEQ ID NO:67, VL SEQ ID NO:68 (antibody, V domains shown)
VH: B1 VH with T30S, S31T, G49A, T54L, S55Y, N59H
VL: B1 VL with D30S, S32A, L33V, S91T, T92Y, G93T, H94T, P95S, Q96L
B5: 184.6.1.NS D30E: anti-FGFR3 Ig-like domain 3 antibody of WO 2010/111367 A1; VH SEQ ID NO:63, VL SEQ ID NO:69 (antibody, V domains shown)
VH: B1 VH
VL: B1 VL with D30E
B6: B-701: anti-FGFR3 antibody of WO 2016/134234 A1; VH SEQ ID NO:70, VL SEQ ID NO:71 (antibody, V domains shown)
VH: EVQLVESGGGLVQPGGSLRLSCAASGFTFTSTGISWVRQAPGKGLEWVGRIYPTSGSTNYADSVKGRFTISADTSKNTAYLQMNSLRAEDTAVYYCARTYGIYDLYVDYTEYVMDYWGQGTLV
VL: B1 VL with Q37K
B7: KC18: anti-FGFR3 IIIb and IIIc antibody of WO 2022/040560 A1; VH SEQ ID NO:72, VL SEQ ID NO:73 (antibody, V domains shown)
VH: QVQLQQSGAELVRPGASVTLSCKASGDTFTDFEIHWVKQTPVHGLEWIGDIDPETGGTAYNQKFRGRAMLTADRSSSTAYMELRSLTSEDSAVYYCTRTYDGYPYAMDYWGQGTSVTVSS
VL: DIVMSQSPSSLAVSVGEKVTMSCKSSQSLLYSNNQKNYLAWYQQKPGQSPKLLIYWASTRESGVPDRFTGSGSGTDFTLTISSVKAEDLAVYYCQQYYSYRTFGGGTKLEIK
B8: KE35: anti-FGFR3 IIIb and IIIc antibody of WO 2022/040560 A1; VH SEQ ID NO:74, VL SEQ ID NO:75 (antibody, V domains shown)
VH: EVQLQQSGPELVKPGASVKMSCKASGYTFTDYNMHWVKQSHGKSLEWIGYINPNNGGTRYNQKFKGKATLTVNKSSSTAYMELRSLTSEDSAVYYCARERDYDGAMDYWGQGTSVTVSS
VL: DIQMTQSPSSLSASLGGKVTITCKASQDINKFIAWYQHKPGKGPRLLIHYTSTLQPGIPSRFSGSGSGRDYSFSISNLEPEDIATYYCLQYDNLLWTFGGGTKLEIK
B9: KE42: anti-FGFR3 IIIb and IIIc antibody of WO 2022/040560 A1; VH SEQ ID NO:76, VL SEQ ID NO:77 (antibody, V domains shown)
VH: B8 VH with E46Q, R59N, K63N, G66D, S77T, A105S, Y108F
VL: B8 VL with Y87F
B10: KE58: anti-FGFR3 IIIb and IIIc antibody of WO 2022/040560 A1; VH SEQ ID NO:78, VL SEQ ID NO:79 (antibody, V domains shown)
VH: EVQLQQSGPDLVKPGASVKISCKASGYTVTDYYMNWVKQSHGKSLEWIGDINPNNGVTTYNQKFKDKATLTVDKSSSTAYMELRSLTSEDSAVYYCAREEDFDGFDYWGQGTTLTVSS
VL: DIVMTQSHKFMSTSVGDRVSITCKASQDVSTGVAWYQQKPGQSPQLLIYWASTRHTGVPDRFTGSGSGTDYILTIRSVQAEDLALYYCQQHYSTPLTFGAGTKLELK
B11: KE63: anti-FGFR3 IIIb and IIIc antibody of WO 2022/040560 A1; VH SEQ ID NO:80, VL SEQ ID NO:81 (antibody, V domains shown)
VH: B7 VH with D27S, T30S, D50G, R65K, R67K, M69I, T99N, P104S, Y105Q, A106T
VL: NIMMTQSPSSLAVSAGEKVTMSCKSSQSVLYSSNQKNYLAWYQQKPGQSPKLLIYWASTRESGVPDRFTGSGSGTDFTLTISSVQAEDLAVYYCHQYLSSYTFGGGTKLEMK
B12: KE94: anti-FGFR3 IIIb and IIIc antibody of WO 2022/040560 A1; VH SEQ ID NO:82, VL SEQ ID NO:83 (antibody, V domains shown)
VH: QVQLQQSGAELVRPGASVTLSCKASGSTFTDFEIHWVKQTPVHGLEWIGAIDPETGGTAYNQKFKGKAILTAVKSSSTAYMGLRSLTSEDSAVYYCTRNYDGYSRTMDYWGQGTSVTVSS
VL: B11 VL with T78S, T80S, A86T, K108R
B13: MS-Pro-11: anti-FGFR3 Ig-like domain 3 antibody of WO 2002/102972 A2; VH SEQ ID NO:30, VL SEQ ID NO:31 (antibody, V domains shown)
VH: QVQLVQSGAEVKKPGASVKVSCKASGYTFTSYYMHWVRQAPGQGLEWMGWINPNSGGTNYAQKFQGRVTMTRDTSISTAYMELSSLRSEDTAVYYCARYYGSSLYHYVFGGFIDYWGQGTLVTVSS
VL: DIALTQPASVSGSPGQSITISCTGTSSDVGGYNYVSYQQHPGKAPKLMIYDVSNRPSGVSNRFSGSKSGNTASLTISGLQAEDEADYYCQSHHFYEVFGGGTKLTVLGQ
B14: FGA0002: anti-FGFR3 (S249C mutant) antibody of WO 2021/010326 A1; VH SEQ ID NO:84, VL SEQ ID NO:85 (antibody, V domains shown)
VH: QELVESGGGLVQPGGSLKLSCKASGIDFSSYGISWVRQAPGKGLEWIAYIVPGFGIRNYANSVKGRFTISSDNAQNTVFLQMTSLTASDTATYFCARVPQYASSSGYYLPFNLWGPGTLVTVSS
VL: ALVMTQTPSPVSAAVGGTVTINCQASEDIYYNLAWFQQKPGQPPKLLIYRASTLASGVPSRFSGSGSGTEFTLTISDVQCDDAATYYCLGVYTYISADGNAFGGGTEVVVK
B15: FGA0005: anti-FGFR3 (S249C mutant) antibody of WO 2021/010326 A1; VH SEQ ID NO:86, VL SEQ ID NO:87 (antibody, V domains shown)
VH: QSLEESGGRLVTPGTPLTLTCTASGFSLSTYWICWVRQAPGEGLEWIGYISSSGNTYYASWAKGRFTISKTSSTTVDLKMTSLTTEDTATYFCGGHNSDYITGWALDPWGPGTLVTVSS
VL: AAVLTQTASPMSAAVGGTVTINCQSSKSVYRDKWLSWFQQKPGQPPKLLIYGASNLASGVSSRFKGSGSGTQFTLTISDVQCDDAATYYCLGGYSDNSEDAFGGGTEVVVK
B16: FGA0007: anti-FGFR3 (S249C mutant) antibody of WO 2021/010326 A1; VH SEQ ID NO:88, VL SEQ ID NO:89 (antibody, V domains shown)
VH: QSVEESGGRLVTPGTPLTLTCTVSGFSLSSYPMSWVRQAPGKGLEWIGIISSSGRTYYASWAKGRFTISKASSTTAALKMTSLTTEDTATYFCARGGVYKYDDYGDYVLNLWGRGTLVTVSS
VL: AIEMTQTPFSVSAAVGGTVTINCQASENIYSNLAWYQQKPGQPPKLLIYAASYLASGVPSRFKGSGSGTDYTLTISGVQCADAATYYCQCTLYSSTYGVAFGGGTEVVVK
B17: MS-Pro-26: anti-FGFR3 Ig-like domain 3 antibody of WO 2002/102972 A2; VH SEQ ID NO:36, VL SEQ ID NO:37 (antibody, V domains shown)
VH: QVQLVQSGAEVKKPGASVKVSCKASGYTFTSYYMHWVRQAPGQGLEWMGWINPNSGGTNYAQKFQGRVTMTRDTSISTAYMELSSLRSEDTAVYYCARGYWYAYFTYINYGYFDNWGQGTLVTVSS
VL: DIALTQPASVSGSPGQSITISCTGTSSDVGGYNYVSWYQQHPGKAPKLMIYDVSNRPSGVSNRFSGSKSGNTASLTISGLQAEDEADYYCQSYDNNSDWFGGGTKLTVLGQ

Test system: FGFR3
[1] = Table T-3, exemplary FGFR3 D3 binding sequences from cited PCT publications
[2] = literature antibodies, sequences from cited PCT publications

Row | Molecule | Activity [1] | Activity [2]
1 | B1 | Antagonistic | Antagonistic
2 | B2 | Antagonistic | Antagonistic
3 | B3 | Antagonistic | Antagonistic
4 | B4 | Antagonistic | Antagonistic
5 | B5 | Antagonistic | Antagonistic
6 | B6 |  | Antagonistic
7 | B7 | Antagonistic | Antagonistic
8 | B8 | Antagonistic | Antagonistic
9 | B9 | Antagonistic | Antagonistic
10 | B10 | Antagonistic | Antagonistic
11 | B11 | Antagonistic | Antagonistic
12 | B12 | Antagonistic | Antagonistic
13 | B13 | Antagonistic | Antagonistic
14 | B14 |  | Antagonistic
15 | B15 |  | Antagonistic
16 | B16 |  | Antagonistic
17 | B17 | Antagonistic | Antagonistic
